# PMC5317049, “Ex vivo^18O-labeling mass spectrometry identifies a peripheral amyloid β clearance pathway” (Molecular Neurodegeneration, 2017)
# Assays:
# [1] = system: IDE; conditions: EDTA in plasma collection tubes; cited from earlier work
# [2] = system: Aβ; conditions: than solanezumab; cited from earlier work
# [3] = molecular target: T1, Aβ1-40 (Homo sapiens, UniProt P05067); experiment: Effect of antibodies on Aβ degradation in 5% serum; assay type: biochemical; conditions: 4 μg recombinant antibody in 1 ml PBS with 0.016 μM labeled Aβ1-40, 1 h pre-incubation, then 5% serum overnight, room temperature; IP-MALDI MS
# T1 construct: To 1 ml PBS containing isotopic labeled Aβ1-40 (0.016 μM) 4 μg of each of the recombinant antibodies; purchased Anaspec, Inc
# Protocol: The antibodies were expressed and purified as previously described. Each sample was spiked with serum (5%, end concentration) followed by incubation overnight at room temperature. The samples were placed in a 100 °C heating block for five minutes to disrupt potential antibody/Aβ complexes, and subsequently centrifuged for 10 min at 4 °C (31.000 x g). The supernatants were transferred to new tubes and Aβ peptides were immunoprecipitated and analyzed by mass spectrometry as described above.
# [4] = molecular target: T2, insulin-degrading enzyme (IDE) (Homo sapiens, UniProt P14735); experiment: Inhibition of IDE activity by insulin; assay type: biochemical; conditions: increasing insulin (0.1, 1 or 10 μM), PBS spiked with Aβ1-40 Arg13C15N, overnight, room temperature; IP-MALDI MS (Fig. 5c)
# T2 construct: purchased Sigma
# Protocol: […] The samples were incubated overnight at room temperature. Immunoprecipitation and mass spectrometry were conducted as described above.
# [5] = system: plasma Aβ; conditions: anti-amyloid treatment; 45 (solanezumab), 9, 22 (ponezumab), 7; cited from earlier work
# Text: To explore this hypothesis, we tested the effect of recombinant versions of the antibodies solanezumab, ba ...
Molecule,effect on proteolytic degradation of Aβ1-40 in serum [3],increase of plasma Aβ concentration compared to physiological levels [5],other results
O=C(O)CN(CCN(CC(=O)O)CC(=O)O)CC(=O)O [EDTA],,,effect on IDE proteolytic activity [1]: inhibit IDE proteolytic activity
crenezumab: recombinant anti-Aβ antibody crenezumab,did not block the degradation,,affinity for Aβ compared with solanezumab [2]: much lower affinity
insulin: insulin added as competing substrate to inhibit IDE-mediated proteolytic activity,,,inhibition of IDE-mediated proteolysis of Aβ1-40 Arg13C15N [4]: abundance of Aβ1-20 decreased with increasing insulin concentration
solanezumab: recombinant version of the mid-domain anti-Aβ antibody solanezumab,effectively abrogated,up to thousand-fold,
"ponezumab: C-terminal (Aβ X-40) antibody ponezumab (antibody, chains of the INN, looked up, V domains shown) VH: QVQLVQSGAEVKKPGASVKVSCKASGYYTEAYYIHWVRQAPGQGLEWMGRIDPATGNTKYAPRLQDRVTMTRDTSTSTVYMELSSLRSEDTAVYYCASLYSLPVYWGQGTTVTVSS VL: DVVMTQSPLSLPVTLGQPASISCKSSQSLLYSDAKTYLNWFQQRPGQSPRRLIYQISRLDPGVPDRFSGSGSGTDFTLKISRVEAEDVGVYYCLQGTHYPVLFGQGTRLEIK",,up to thousand-fold,
